Four molecules from patent US20220267444A1 (CTTQ AKESO SHANGHAI BIOMED TECH, published 2022) can be followed below.

For one experiment, the target named is T1, Fc receptor FcγRIIa_R131 (UniProt P12318 34-218, limits assumed).
T1 sequence (looked up): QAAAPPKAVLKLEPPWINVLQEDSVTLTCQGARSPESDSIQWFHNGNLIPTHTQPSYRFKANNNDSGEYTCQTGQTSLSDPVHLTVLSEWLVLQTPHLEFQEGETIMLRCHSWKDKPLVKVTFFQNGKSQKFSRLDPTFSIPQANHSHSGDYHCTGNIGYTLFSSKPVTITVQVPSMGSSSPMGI
The experiment can be described thus: BLI (Fortebio Octet); FcγRIIa_R131 on NTA sensor, antibody 12.5-200 nM; 1:1 fit. The protocol:
(§1) 5 μg/mL FcγRIIa_R131 was immobilized on the NTA sensor at an immobilization height of about 1.0 nm. The sensor was equilibrated in a buffer of 0.02% Tween-20, 0.02% casein and 0.1% BSA in PBS, pH 7.4 for 300 s of blocking, and the binding of the immobilized FcγRIIa_R131 on the sensor to the antibodies at concentrations of 12.5-200 nM (serial two-fold dilution) was determined for 60 s. The antibody was dissociated in the buffer for 60 s. The sensor was refreshed in 10 mM glycine pH 1.7 and […] nickel sulfate. The temperature was 30° C. and the frequency was 0.6 Hz. The data were analyzed by 1:1 model fitting to obtain affinity constants.

The target in experiment [1] is T2, Fc receptor FcγRIIb (human, UniProt P31994 43-217).
T2 construct: also called CD32b; hFcγRIIb-his; not shown: his tag named in 'hFcγRIIb-his'
T2 sequence (looked up): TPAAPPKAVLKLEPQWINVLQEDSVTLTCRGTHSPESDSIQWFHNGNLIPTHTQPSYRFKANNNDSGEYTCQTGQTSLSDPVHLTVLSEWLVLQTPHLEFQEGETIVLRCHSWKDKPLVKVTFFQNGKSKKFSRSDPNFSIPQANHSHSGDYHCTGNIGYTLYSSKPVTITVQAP
Kind of experiment: BLI (Fortebio Octet), hFcγRIIb-his immobilised on NTA sensor, antibody in solution at 12.5-200 nM. The procedure: as §1, with “hFcγRIIb-his” for “FcγRIIa_R131”

Experiment [2] has as its target T3, Fc receptor FcγRI (UniProt P12314 16-288).
T3 construct: also called CD64
Kind of experiment: BLI (Fortebio Octet), FcγRI immobilised on HIS1K sensor, antibody in solution at 3.12-50 nM. The procedure:
(§2) The Fc receptor FcγRI, also known as CD64, can bind to the Fc fragment of IgG antibodies and is involved in antibody-dependent cell-mediated cytotoxicity (ADCC). The binding capacity of a therapeutic monoclonal antibody to Fc receptors will influence the safety and efficacy of the antibody. […] A 1 μg/mL FcγRI solution (from Sinobio) was added to the HIS1K sensor to immobilize the FcγRI on the sensor surface for 50 s. The association and dissociation constants of the antibodies to FcγRI were both determined in the buffer with the antibody concentrations being 3.12-50 nM (serial two-fold dilution). The sensor with immobilized antigen was equilibrated in the buffer for 60 s, and then the binding of the immobilized FcγRI on the sensor to the antibodies was determined for 120 s; the dissociation of FcγRI from the antibodies was determined in 120 s. The temperature was 30° C. and the frequency was 0.3 Hz. The data were fitted and analyzed with a 1:1 model to obtain the affinity constants to FcγRI for the antibodies.
Background: BLI is a label-free optical method that tracks binding on a fibre tip over time.

The target in experiment [3] is T4, Fc receptor FcγRIIa_H131 (UniProt P12318 34-218, limits assumed).
T4 sequence (looked up): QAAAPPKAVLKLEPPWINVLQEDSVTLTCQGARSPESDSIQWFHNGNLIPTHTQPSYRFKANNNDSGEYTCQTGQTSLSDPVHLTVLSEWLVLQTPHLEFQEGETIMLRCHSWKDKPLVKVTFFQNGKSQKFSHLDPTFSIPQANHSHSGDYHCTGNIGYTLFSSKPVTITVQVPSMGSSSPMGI
The experiment can be described thus: BLI (Fortebio Octet), FcγRIIa_H131 immobilised on NTA sensor, antibody in solution at 12.5-200 nM. The protocol:
as §1, with “FcγRIIa_H131” for “FcγRIIa_R131”

Experiment [4] addresses T5, Fc receptor FcγRIIIa_F158 (UniProt P08637 17-208). Kind of experiment: BLI (Fortebio Octet), FcγRIIIa_F158 immobilised on HIS1K sensor, antibody in solution at 31.25-500 nM. The procedure:
(§3) 5 μg/mL FcγRIIIa_F158 was immobilized on the HIS1K sensor for 120 s. The sensor was equilibrated in a buffer for 60 s, and the binding of the immobilized FcγRIIIa_F158 on the sensor to the antibodies at concentrations of 31.25-500 nM (serial two-fold dilution) was determined for 60 s. The antibody was dissociated in the buffer for 60 s. The sensor was refreshed 4 times in 10 mM glycine pH 1.5, each for 5 s. The temperature was 30° C. and the frequency was 0.3 Hz. The data were analyzed by 1:1 model fitting to obtain affinity constants.

In experiment [5] the target is T6, Fc receptor FcγRIIIa_V158 (UniProt P08637 17-208). Kind of experiment: BLI (Fortebio Octet), FcγRIIIa_V158 immobilised on HIS1K sensor, antibody in solution at 31.25-500 nM. The procedure:
(§4) 5 μg/mL FcγRIIIa_V158 was immobilized on the HIS1K sensor for 120 s. The sensor was equilibrated in a buffer for 60 s, and the binding of the immobilized FcγRIIIa_V158 on the sensor to the antibodies at concentrations of 31.25-500 nM (serial two-fold dilution) was determined for 60 s. The antibody was dissociated in the buffer for 60 s. The sensor was refreshed 4 times in 10 mM glycine pH 1.5, each for 5 s. The temperature was 30° C. and the frequency was 0.3 Hz. The data were analyzed by 1:1 model fitting to obtain affinity constants.

The target in experiment [6] is T7, Serum complement C1q (UniProt P02745 23-245; P02746 28-253; P02747 29-245). The experiment can be described thus: BLI (Fortebio Octet), antibody immobilised on FAB2G sensor, C1q in solution at 1.25-20 nM. The procedure: (§5) 50 μg/mL antibody was immobilized on the FAB2G sensor at an immobilization height of about 2.0 nm. The sensor was equilibrated in a buffer for 60 s for blocking, and the binding of the immobilized antibody on the sensor to the antigen C1q at concentrations of 1.25-20 nM (serial two-fold dilution) was determined for 60 s. The antigen and antibody were dissociated in the buffer for 60 s. The sensor was refreshed 4 times in 10 mM glycine pH 1.7, each for 5 s. The shaking speed of the sample plate was 1000 rpm, the temperature was 30° C. and the frequency was 0.6 Hz. The data were analyzed by 1:1 model fitting to obtain affinity constants. The data acquisition software was Fortebio Data Acquisition 7.0, and the data analysis software was Fortebio Data Analysis 7.0.
T7 sequence (P02745 23-245 limits assumed, chain 1 of 3): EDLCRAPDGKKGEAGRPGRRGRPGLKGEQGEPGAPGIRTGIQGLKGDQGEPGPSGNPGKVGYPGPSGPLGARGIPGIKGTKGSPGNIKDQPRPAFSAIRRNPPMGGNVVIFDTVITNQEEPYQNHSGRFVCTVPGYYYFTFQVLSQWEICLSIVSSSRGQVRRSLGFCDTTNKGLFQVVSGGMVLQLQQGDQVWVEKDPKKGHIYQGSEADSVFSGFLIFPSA
T7 sequence (P02746 28-253 limits assumed, chain 2 of 3): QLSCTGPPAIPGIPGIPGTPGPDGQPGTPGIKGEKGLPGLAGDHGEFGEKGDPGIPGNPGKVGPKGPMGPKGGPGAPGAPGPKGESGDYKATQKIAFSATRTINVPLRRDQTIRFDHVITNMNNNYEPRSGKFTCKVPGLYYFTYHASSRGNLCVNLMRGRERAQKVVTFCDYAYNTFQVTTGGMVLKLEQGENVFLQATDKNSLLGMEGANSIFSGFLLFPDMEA
T7 sequence (P02747 29-245 limits assumed, chain 3 of 3): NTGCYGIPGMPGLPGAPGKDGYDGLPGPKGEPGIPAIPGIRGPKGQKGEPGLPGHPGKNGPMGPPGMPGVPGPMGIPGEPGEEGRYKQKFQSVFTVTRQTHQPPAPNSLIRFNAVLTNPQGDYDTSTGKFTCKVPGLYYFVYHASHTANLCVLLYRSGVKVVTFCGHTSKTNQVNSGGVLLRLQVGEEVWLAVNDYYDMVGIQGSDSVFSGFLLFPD

For experiment [7], the target named is T3, Fc receptor FcγRI. Kind of experiment: BLI (Fortebio Octet); FcγRI on HIS1K sensor, antibody 3.12-50 nM; 1:1 fit. The protocol: as §2
The target in experiment [8] is T4, Fc receptor FcγRIIa_H131. The experiment can be described thus: BLI (Fortebio Octet); FcγRIIa_H131 on NTA sensor, antibody 12.5-200 nM; 1:1 fit. The protocol:
as §1, with “FcγRIIa_H131” for “FcγRIIa_R131”

For experiment [9], the target named is T2, Fc receptor FcγRIIb. Kind of experiment: BLI (Fortebio Octet); hFcγRIIb-his on NTA sensor, antibody 12.5-200 nM; 1:1 fit. The procedure:
as §1, with “hFcγRIIb-his” for “FcγRIIa_R131”

For experiment [10], the target named is T5, Fc receptor FcγRIIIa_F158. The experiment can be described thus: BLI (Fortebio Octet); FcγRIIIa_F158 on HIS1K sensor, antibody 31.25-500 nM; 1:1 fit. The protocol:
as §3

For experiment [11], the target named is T7, Serum complement C1q. The experiment can be described thus: BLI (Fortebio Octet); antibody on FAB2G sensor, C1q 1.25-20 nM; 1:1 fit. The procedure: as §5
For experiment [12], the target named is T6, Fc receptor FcγRIIIa_V158. The experiment can be described thus: BLI (Fortebio Octet); FcγRIIIa_V158 on HIS1K sensor, antibody 31.25-500 nM; 1:1 fit. The protocol: as §4

T3 sequence (P12314 16-288 limits assumed): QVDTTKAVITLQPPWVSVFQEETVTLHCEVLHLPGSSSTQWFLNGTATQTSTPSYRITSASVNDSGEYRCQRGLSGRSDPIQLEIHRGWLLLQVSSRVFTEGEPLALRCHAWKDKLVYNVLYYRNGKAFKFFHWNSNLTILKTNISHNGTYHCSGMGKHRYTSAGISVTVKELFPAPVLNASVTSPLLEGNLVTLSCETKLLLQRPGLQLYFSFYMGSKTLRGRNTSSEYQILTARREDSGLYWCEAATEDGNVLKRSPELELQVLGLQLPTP
T6 sequence (P08637 17-208 F176V limits assumed): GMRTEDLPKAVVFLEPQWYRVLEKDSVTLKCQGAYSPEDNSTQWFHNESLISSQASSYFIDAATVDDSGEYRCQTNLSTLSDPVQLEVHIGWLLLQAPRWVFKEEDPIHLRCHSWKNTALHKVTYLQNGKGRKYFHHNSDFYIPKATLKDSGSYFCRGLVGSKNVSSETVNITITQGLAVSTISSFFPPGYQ
T5 sequence (P08637 17-208 limits assumed): as the sequence (P08637 17-208 F176V limits assumed) above, with V160F counted along it

B1: 14C12H1L1(hG1TM) (antibody, human IgG1, kappa)
heavy: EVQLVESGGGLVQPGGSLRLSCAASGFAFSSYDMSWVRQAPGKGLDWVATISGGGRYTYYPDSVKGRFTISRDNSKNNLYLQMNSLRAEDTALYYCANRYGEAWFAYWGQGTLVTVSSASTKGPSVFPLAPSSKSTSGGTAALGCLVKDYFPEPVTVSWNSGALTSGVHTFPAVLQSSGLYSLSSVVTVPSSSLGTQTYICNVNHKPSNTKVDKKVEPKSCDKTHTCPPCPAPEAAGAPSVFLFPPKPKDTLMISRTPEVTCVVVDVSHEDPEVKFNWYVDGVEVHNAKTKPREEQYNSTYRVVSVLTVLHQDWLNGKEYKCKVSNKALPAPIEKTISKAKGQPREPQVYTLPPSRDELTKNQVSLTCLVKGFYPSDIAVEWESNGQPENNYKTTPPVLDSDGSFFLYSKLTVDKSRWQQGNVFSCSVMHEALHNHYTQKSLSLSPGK
light: DIQMTQSPSSMSASVGDRVTFTCRASQDINTYLSWFQQKPGKSPKTLIYRANRLVSGVPSRFSGSGSGQDYTLTISSLQPEDMATYYCLQYDEFPLTFGAGTKLELKRTVAAPSVFIFPPSDEQLKSGTASVVCLLNNFYPREAKVQWKVDNALQSGNSQESVTEQDSKDSTYSLSSTLTLSKADYEKHKVYACEVTHQGLSSPVTKSFNRGEC
notes: Humanized anti-PD-1 IgG1 mutant of 14C12H1L1(hG1WT) with L234A, L235A and G237A (EU numbering) in the heavy chain
In turn, B1 registered a Kd with Fc receptor FcγRIIa_R131 of 232 nM. This molecule displayed a koff with Fc receptor FcγRIIa_R131 of 0.0938 s⁻¹. For the same molecule, the kon with Fc receptor FcγRIIa_R131 turned out to be 404000 M⁻¹ s⁻¹. In addition, the binding result in the experiment with Fc receptor FcγRIIb [1] is reported as “no binding (tested: 200 nM)”; with Fc receptor FcγRI [2], “no binding (tested: 50 nM)”; with Fc receptor FcγRIIa_H131 [3], “no binding (tested: 200 nM)”; in experiment [4] it was “no binding (tested: 500 nM)”; in [5] it was “no binding (tested: 500 nM)”; with Serum complement C1q [6] it was “no binding (tested: 20 nM)”.

B2: 14C12H1L1(hG4) (antibody, human IgG4 S228P, kappa)
heavy: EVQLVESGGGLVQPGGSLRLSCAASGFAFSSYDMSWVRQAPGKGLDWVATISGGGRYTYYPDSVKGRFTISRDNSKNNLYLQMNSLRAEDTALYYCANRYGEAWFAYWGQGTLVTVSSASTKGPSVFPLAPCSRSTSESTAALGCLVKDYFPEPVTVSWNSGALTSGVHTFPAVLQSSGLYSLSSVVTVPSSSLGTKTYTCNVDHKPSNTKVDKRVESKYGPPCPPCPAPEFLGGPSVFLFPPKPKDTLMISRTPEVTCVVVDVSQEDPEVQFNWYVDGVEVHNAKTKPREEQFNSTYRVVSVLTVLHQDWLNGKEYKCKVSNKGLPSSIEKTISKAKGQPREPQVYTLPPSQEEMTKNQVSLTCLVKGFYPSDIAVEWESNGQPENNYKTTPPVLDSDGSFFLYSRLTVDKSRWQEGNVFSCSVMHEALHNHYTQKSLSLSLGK
light: DIQMTQSPSSMSASVGDRVTFTCRASQDINTYLSWFQQKPGKSPKTLIYRANRLVSGVPSRFSGSGSGQDYTLTISSLQPEDMATYYCLQYDEFPLTFGAGTKLELKRTVAAPSVFIFPPSDEQLKSGTASVVCLLNNFYPREAKVQWKVDNALQSGNSQESVTEQDSKDSTYSLSSTLTLSKADYEKHKVYACEVTHQGLSSPVTKSFNRGEC
notes: Humanized anti-PD-1 antibody with the variable regions of 14C12H1L1(hG1WT), Ig gamma-4 chain C region (P01861.1) and Ig kappa chain C region (P01834)
B2: the Kd amounted to 31.3 nM with Fc receptor FcγRIIa_R131, 5.8 nM with Fc receptor FcγRI [7], 50.7 nM with Fc receptor FcγRIIa_H131 [8] and 56.2 nM in the experiment with Fc receptor FcγRIIb [9]. In addition, the koff with Fc receptor FcγRIIa_R131 was 0.011 s⁻¹; in the experiment with Fc receptor FcγRI [7], 0.00369 s⁻¹; with Fc receptor FcγRIIa_H131 [8] it was 0.013 s⁻¹; with Fc receptor FcγRIIb [9], 0.0162 s⁻¹. The kon with Fc receptor FcγRIIa_R131 came out at 350000 M⁻¹ s⁻¹; with Fc receptor FcγRI [7], 637000 M⁻¹ s⁻¹; with Fc receptor FcγRIIa_H131 [8], 257000 M⁻¹ s⁻¹; with Fc receptor FcγRIIb [9], 288000 M⁻¹ s⁻¹. The values for the binding result (in [4]; in the experiment with Serum complement C1q [6]) were “no binding (tested: 500 nM)” and “no binding (tested: 20 nM)”, respectively.

B3: 14C12H1L1(hG1WT) (antibody, human IgG1, kappa)
heavy: not shown
light: DIQMTQSPSSMSASVGDRVTFTCRASQDINTYLSWFQQKPGKSPKTLIYRANRLVSGVPSRFSGSGSGQDYTLTISSLQPEDMATYYCLQYDEFPLTFGAGTKLELKRTVAAPSVFIFPPSDEQLKSGTASVVCLLNNFYPREAKVQWKVDNALQSGNSQESVTEQDSKDSTYSLSSTLTLSKADYEKHKVYACEVTHQGLSSPVTKSFNRGEC
notes: Humanized anti-PD-1 antibody, wild-type human IgG1 constant region
For B3, the Kd amounted to 34.6 nM in the experiment with Fc receptor FcγRIIa_R131; 102 nM in experiment [10]; 1.35 nM in the experiment with Serum complement C1q [11]; 2.52 nM with Fc receptor FcγRI [7]; 65.4 nM in [12]; 57.4 nM with Fc receptor FcγRIIa_H131 [8]. The molecule also yielded a Kd in the experiment with Fc receptor FcγRIIb [9] of 61.3 nM. Moreover, the koff is 0.0228 s⁻¹ with Fc receptor FcγRIIa_R131; 0.0256 s⁻¹ in experiment [10]; 0.00654 s⁻¹ with Serum complement C1q [11]; 0.00175 s⁻¹ with Fc receptor FcγRI [7]; 0.0171 s⁻¹ in experiment [12]; 0.0267 s⁻¹ in the experiment with Fc receptor FcγRIIa_H131 [8]. The molecule further gave a koff with Fc receptor FcγRIIb [9] of 0.0195 s⁻¹. Also, the kon was determined as 660000 M⁻¹ s⁻¹ in the experiment with Fc receptor FcγRIIa_R131; 252000 M⁻¹ s⁻¹ in [10]; 4.83e+06 M⁻¹ s⁻¹ with Serum complement C1q [11]; 694000 M⁻¹ s⁻¹ with Fc receptor FcγRI [7]; 261000 M⁻¹ s⁻¹ in experiment [12]; 465000 M⁻¹ s⁻¹ with Fc receptor FcγRIIa_H131 [8]. The same molecule returned a kon with Fc receptor FcγRIIb [9] of 318000 M⁻¹ s⁻¹.

B4: 5C10H2L2-IgG1mt (antibody)
chain 1: not shown
chain 2: EIVLTQSPDTLSVTPKEKVTLTCRASQSIGTNIHWFQQKPGQSPKLLIKYASESISGVPSRFSGSGSGTDFTLTINSVEAEDAATYYCQQSNSWPYTFGQGTKLEIKRTVAAPSVFIFPPSDEQLKSGTASVVCLLNNFYPREAKVQWKVDNALQSGNSQESVTEQDSKDSTYSLSSTLTLSKADYEKHKVYACEVTHQGLSSPVTKSFNRGEC
In the experiment with Serum complement C1q [11], B4 showed a Kd of 4.43 nM, a koff of 0.0105 s⁻¹ and a kon of 2.38e+06 M⁻¹ s⁻¹.

Usually Kd stands for the equilibrium constant for the complex coming apart. High values mean lower affinity, low ones higher affinity. In general, koff refers to the rate constant with which the complex falls apart. One may read the kon as a measure of how fast the partners come together. High values mean faster complex formation, low ones slower complex formation.
